The text below walks through data of PMC3034650 (FEBS letters, 2010).

In general, Kd refers to the free concentration of one partner at which half of the binding sites on the other are occupied at equilibrium, for simple one-to-one binding. Lower therefore signals higher affinity.

For this assay, the target named is T1, Human IκBα(67-287), unhydroxylated (human, UniProt P25963 67-287).
T1 sequence (looked up): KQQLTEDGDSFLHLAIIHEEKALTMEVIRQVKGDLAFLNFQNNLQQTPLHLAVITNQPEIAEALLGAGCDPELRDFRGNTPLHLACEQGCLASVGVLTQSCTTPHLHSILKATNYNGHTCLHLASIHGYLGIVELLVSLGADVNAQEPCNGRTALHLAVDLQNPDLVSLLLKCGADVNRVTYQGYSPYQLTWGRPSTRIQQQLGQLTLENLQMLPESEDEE
The assay can be described thus: SPR. (Surface plasmon resonance follows binding to a sensor surface in real time, without labels.)

B1: NFκB (p50(248-321)/p65(190-321)) (complex)
chain 1: LKIVRMDRTAGCVTGGEEIYLLCDKVQKDDIQIRFYEEEENGGVWEGFGDFSPTDVHRQFAIVFKTPKYKDVNI
chain 2: NTAELKICRVNRNSGSCLGGDEIFLLCDKVQKEDIEVYFTGPGWEARGSFSQADVHRQVAIVFRTPPYADPSLQAPVRVSMQLRRPSDRELSEPMEFQYLPDTDDRHRIEEKRKRTYETFKSIMKKSPFNGP
modifications: biotin at the N-terminus
B1 showed a dissociation constant Kd of 0.062 ± 0.012 nM.
